Laboratory results: paper PMC12751603 (Journal of Experimental & Clinical Cancer Research : CR, 2025)
Non-standard residues stand in square brackets, D forms with d. No end group written: not given here. pY = N[C@@H](Cc1ccc(OP(=O)(O)O)cc1)C(=O)O

What was measured:
[1] = biological target: T1, GST-PTPN9 Y333A (UniProt P43378 1-593, Y333A); assay: cell-based or functional assay
T1 sequence (looked up): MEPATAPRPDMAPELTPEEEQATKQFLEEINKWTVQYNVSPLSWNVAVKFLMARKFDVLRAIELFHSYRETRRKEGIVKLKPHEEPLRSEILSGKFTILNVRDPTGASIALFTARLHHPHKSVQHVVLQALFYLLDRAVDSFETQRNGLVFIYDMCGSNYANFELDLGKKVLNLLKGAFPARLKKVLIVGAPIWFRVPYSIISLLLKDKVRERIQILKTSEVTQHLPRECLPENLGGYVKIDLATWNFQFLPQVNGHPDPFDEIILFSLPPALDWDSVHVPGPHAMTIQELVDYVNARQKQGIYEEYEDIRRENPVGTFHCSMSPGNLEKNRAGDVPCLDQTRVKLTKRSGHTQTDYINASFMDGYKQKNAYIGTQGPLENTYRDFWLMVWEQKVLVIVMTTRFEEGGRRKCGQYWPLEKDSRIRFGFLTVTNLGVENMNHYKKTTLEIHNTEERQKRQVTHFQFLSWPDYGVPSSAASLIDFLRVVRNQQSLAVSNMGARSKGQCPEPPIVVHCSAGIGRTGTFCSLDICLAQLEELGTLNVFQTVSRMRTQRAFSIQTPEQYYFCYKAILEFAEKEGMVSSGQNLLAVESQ

[2] = biological target: T2, GST-PTPN9 D335A (UniProt P43378 1-593, D335A); assay: cell-based or functional assay
T2 sequence (looked up): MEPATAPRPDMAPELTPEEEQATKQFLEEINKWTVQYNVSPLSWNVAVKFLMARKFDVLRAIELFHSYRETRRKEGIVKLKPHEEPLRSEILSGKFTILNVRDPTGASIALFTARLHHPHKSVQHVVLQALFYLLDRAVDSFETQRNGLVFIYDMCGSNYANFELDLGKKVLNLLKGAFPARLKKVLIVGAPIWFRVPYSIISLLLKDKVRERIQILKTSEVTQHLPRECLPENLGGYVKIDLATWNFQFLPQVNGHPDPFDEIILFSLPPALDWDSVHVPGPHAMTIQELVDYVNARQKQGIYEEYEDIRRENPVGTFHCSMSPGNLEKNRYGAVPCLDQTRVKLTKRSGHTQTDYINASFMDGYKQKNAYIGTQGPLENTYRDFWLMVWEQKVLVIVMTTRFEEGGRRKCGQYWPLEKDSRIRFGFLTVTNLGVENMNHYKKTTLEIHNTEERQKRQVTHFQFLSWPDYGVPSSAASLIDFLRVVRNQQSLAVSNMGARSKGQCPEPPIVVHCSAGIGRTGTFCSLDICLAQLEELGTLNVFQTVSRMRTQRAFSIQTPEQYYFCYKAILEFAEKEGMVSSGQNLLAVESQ

Kcat of phosphatase activity against the p-IGF1R^Y1165/1166 peptide [1]: 3.42 s⁻¹ | Kcat of phosphatase activity against the p-IGF1R^Y1165/1166 peptide [2]: 1.78 s⁻¹
Binder: IYETD[pY][pY]RKGGK [p-IGF1R^Y1165/1166 peptide]
